Laboratory results from patent publication US20240209409A1 (AJINOMOTO, published 2024).
One block for each binder: values may come before it. Where no end group is shown, it is not given here. [ ]: non-standard residue; d: D form. Phe(4-N3) = [N-]=[N+]=Nc1ccc(C[C@H](N)C(=O)O)cc1

Assays:
Met = Met (UniProt P08581 25-1390, limits assumed); test: cell-based or functional assay
EPOR = target: T1, EPOR (UniProt P19235 25-508, limits assumed); test: cell-based or functional assay
T1 sequence (looked up): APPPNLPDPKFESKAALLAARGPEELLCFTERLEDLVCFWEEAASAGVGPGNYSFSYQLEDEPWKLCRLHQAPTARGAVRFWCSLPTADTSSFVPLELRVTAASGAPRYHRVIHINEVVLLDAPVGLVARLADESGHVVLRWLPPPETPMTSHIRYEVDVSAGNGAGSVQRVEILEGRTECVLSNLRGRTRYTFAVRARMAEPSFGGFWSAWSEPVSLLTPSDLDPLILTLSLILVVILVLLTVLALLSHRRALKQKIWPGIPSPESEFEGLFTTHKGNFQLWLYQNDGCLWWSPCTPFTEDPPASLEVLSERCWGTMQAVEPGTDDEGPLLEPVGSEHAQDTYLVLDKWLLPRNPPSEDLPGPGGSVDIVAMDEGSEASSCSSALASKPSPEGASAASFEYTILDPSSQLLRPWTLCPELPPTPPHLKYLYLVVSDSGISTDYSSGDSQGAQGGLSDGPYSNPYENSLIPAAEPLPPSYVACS

Met, sequence (P08581 25-1390 limits assumed): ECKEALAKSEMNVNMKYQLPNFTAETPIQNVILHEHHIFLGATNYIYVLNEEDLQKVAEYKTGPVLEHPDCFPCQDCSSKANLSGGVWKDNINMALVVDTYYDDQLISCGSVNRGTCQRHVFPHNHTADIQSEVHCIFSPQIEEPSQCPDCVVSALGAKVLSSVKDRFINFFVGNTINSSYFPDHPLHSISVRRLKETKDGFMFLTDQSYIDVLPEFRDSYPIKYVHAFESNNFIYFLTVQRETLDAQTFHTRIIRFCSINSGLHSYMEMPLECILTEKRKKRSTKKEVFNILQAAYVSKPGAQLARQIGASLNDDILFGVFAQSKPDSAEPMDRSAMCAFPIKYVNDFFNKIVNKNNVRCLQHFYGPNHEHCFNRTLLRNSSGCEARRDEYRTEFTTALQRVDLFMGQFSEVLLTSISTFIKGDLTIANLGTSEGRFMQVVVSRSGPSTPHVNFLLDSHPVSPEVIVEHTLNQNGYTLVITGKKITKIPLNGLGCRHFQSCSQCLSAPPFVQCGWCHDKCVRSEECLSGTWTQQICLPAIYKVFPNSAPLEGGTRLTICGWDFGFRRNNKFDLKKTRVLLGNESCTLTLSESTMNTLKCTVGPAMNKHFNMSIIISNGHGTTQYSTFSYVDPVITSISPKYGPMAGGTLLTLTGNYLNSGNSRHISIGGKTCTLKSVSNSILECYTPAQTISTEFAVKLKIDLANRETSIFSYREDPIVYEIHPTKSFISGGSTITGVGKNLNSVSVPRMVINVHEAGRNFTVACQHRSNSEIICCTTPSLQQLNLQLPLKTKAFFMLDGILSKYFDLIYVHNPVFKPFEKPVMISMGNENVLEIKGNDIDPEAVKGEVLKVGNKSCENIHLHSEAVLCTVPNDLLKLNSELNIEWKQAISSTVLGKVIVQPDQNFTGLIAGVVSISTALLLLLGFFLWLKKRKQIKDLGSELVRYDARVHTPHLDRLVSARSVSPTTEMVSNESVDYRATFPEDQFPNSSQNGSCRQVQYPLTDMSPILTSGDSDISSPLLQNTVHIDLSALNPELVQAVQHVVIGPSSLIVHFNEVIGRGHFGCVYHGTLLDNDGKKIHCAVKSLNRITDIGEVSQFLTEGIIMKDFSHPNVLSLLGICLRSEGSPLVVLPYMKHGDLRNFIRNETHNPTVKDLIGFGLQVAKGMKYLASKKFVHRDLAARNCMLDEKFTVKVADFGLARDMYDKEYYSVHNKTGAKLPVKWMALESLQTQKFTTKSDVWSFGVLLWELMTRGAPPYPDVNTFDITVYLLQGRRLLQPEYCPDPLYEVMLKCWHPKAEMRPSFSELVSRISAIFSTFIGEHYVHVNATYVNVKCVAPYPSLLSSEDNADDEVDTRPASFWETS

B1: L1-AzF-aMD4dY-PA22 PEG-modified using m-dPEG24-DBCO (peptide)
chain: AETCRQFNRRTHEVWNLDCGAAPAAPAPAAPA[Phe(4-N3)](m‑dPEG24‑DBCO)APAPAAPAAPGCRQFNRRTHEVWNLDC
modifications: cysteine pairing not given here
reporter activity (SRE reporter, firefly/Renilla luciferase, HEK293 cells, relative to Mock); PEG+ sample, 2500-fold diluted (Met): > 10 times that of Mock

B4: L2-AzF-EPO-PA22 (peptide)
chain: AETGGLYACHMGPMTWVCQPLRGAAPAAPAPAA[Phe(4-N3)]AAPAPAAPAAPGGLYACHMGPMTWVCQPLRG
reporter activity (PathHunter eXpress EpoR-JAK2 Functional Assay, chemiluminescence relative to Mock); PEG- sample, 1000-fold diluted (EPOR): > 1.5 times that of Mock

B6: N-AzF-aMD4dY-PA22 PEG-modified using m-dPEG24-DBCO (peptide)
chain: AET[Phe(4-N3)](m‑dPEG24‑DBCO)CRQFNRRTHEVWNLDCGAAPAAPAPAAPAAPAPAAPAAPGCRQFNRRTHEVWNLDC
modifications: cysteine pairing not given here
reporter activity (SRE reporter, firefly/Renilla luciferase, HEK293 cells, relative to Mock); PEG+ sample, 2500-fold diluted (Met): > 10 times that of Mock

B8: N-AzF-EPO-PA22 (peptide)
chain: AET[Phe(4-N3)]GGLYACHMGPMTWVCQPLRGAAPAAPAPAAPAAPAPAAPAAPGGLYACHMGPMTWVCQPLRG
reporter activity (PathHunter eXpress EpoR-JAK2 Functional Assay, chemiluminescence relative to Mock); PEG- sample, 1000-fold diluted (EPOR): > 1.5 times that of Mock

B10: L1-AzF-EPO-PA22 PEG-modified using m-dPEG24-DBCO (peptide)
chain: AETGGLYACHMGPMTWVCQPLRGAAPAAPAPAAPA[Phe(4-N3)](m‑dPEG24‑DBCO)APAPAAPAAPGGLYACHMGPMTWVCQPLRG
reporter activity (PathHunter eXpress EpoR-JAK2 Functional Assay, chemiluminescence relative to Mock); PEG+ sample, 1000-fold diluted (EPOR): > 1.5 times that of Mock

B12: N-AzF-aMD4dY-PA22 (peptide)
chain: AET[Phe(4-N3)]CRQFNRRTHEVWNLDCGAAPAAPAPAAPAAPAPAAPAAPGCRQFNRRTHEVWNLDC
modifications: cysteine pairing not given here
reporter activity (SRE reporter, firefly/Renilla luciferase, HEK293 cells, relative to Mock); PEG- sample, 2500-fold diluted (Met): > 10 times that of Mock

The remaining lines, values ahead:

reporter activity (PathHunter eXpress EpoR-JAK2 Functional Assay, chemiluminescence relative to Mock); PEG+ sample, 1000-fold diluted (EPOR): > 1.5 times that of Mock
B2: N-AzF-EPO-PA22 PEG-modified using m-dPEG24-DBCO (peptide)
chain: AET[Phe(4-N3)](m‑dPEG24‑DBCO)GGLYACHMGPMTWVCQPLRGAAPAAPAPAAPAAPAPAAPAAPGGLYACHMGPMTWVCQPLRG

reporter activity (SRE reporter, firefly/Renilla luciferase, HEK293 cells, relative to Mock); PEG+ sample, 2500-fold diluted (Met): > 10 times that of Mock
B3: L2-AzF-aMD4dY-PA22 PEG-modified using m-dPEG24-DBCO (peptide)
chain: AETCRQFNRRTHEVWNLDCGAAPAAPAPAA[Phe(4-N3)](m‑dPEG24‑DBCO)AAPAPAAPAAPGCRQFNRRTHEVWNLDC
modifications: cysteine pairing not given here

reporter activity (SRE reporter, firefly/Renilla luciferase, HEK293 cells, relative to Mock); PEG- sample, 2500-fold diluted (Met): > 10 times that of Mock
B5: L2-AzF-aMD4dY-PA22 (peptide)
chain: AETCRQFNRRTHEVWNLDCGAAPAAPAPAA[Phe(4-N3)]AAPAPAAPAAPGCRQFNRRTHEVWNLDC
modifications: cysteine pairing not given here

reporter activity (SRE reporter, firefly/Renilla luciferase, HEK293 cells, relative to Mock); PEG+ sample (WT treated with m-dPEG24-DBCO, not modified), 2500-fold diluted (Met): > 10 times that of Mock
reporter activity (SRE reporter, firefly/Renilla luciferase, HEK293 cells, relative to Mock); PEG- sample, 2500-fold diluted (Met): > 10 times that of Mock
B7: WT-aMD4dY-PA22 (peptide)
chain: AETCRQFNRRTHEVWNLDCGAAPAAPAPAAPAAPAPAAPAAPGCRQFNRRTHEVWNLDC

reporter activity (PathHunter eXpress EpoR-JAK2 Functional Assay, chemiluminescence relative to Mock); PEG- sample, 1000-fold diluted (EPOR): > 1.5 times that of Mock
B9: L1-AzF-EPO-PA22 (peptide)
chain: AETGGLYACHMGPMTWVCQPLRGAAPAAPAPAAPA[Phe(4-N3)]APAPAAPAAPGGLYACHMGPMTWVCQPLRG

reporter activity (PathHunter eXpress EpoR-JAK2 Functional Assay, chemiluminescence relative to Mock); PEG+ sample, 1000-fold diluted (EPOR): > 1.5 times that of Mock
B11: L2-AzF-EPO-PA22 PEG-modified using m-dPEG24-DBCO (peptide)
chain: AETGGLYACHMGPMTWVCQPLRGAAPAAPAPAA[Phe(4-N3)](m‑dPEG24‑DBCO)AAPAPAAPAAPGGLYACHMGPMTWVCQPLRG

reporter activity (SRE reporter, firefly/Renilla luciferase, HEK293 cells, relative to Mock); PEG- sample, 2500-fold diluted (Met): > 10 times that of Mock
B13: L1-AzF-aMD4dY-PA22 (peptide)
chain: AETCRQFNRRTHEVWNLDCGAAPAAPAPAAPA[Phe(4-N3)]APAPAAPAAPGCRQFNRRTHEVWNLDC
modifications: cysteine pairing not given here

reporter activity (PathHunter eXpress EpoR-JAK2 Functional Assay, chemiluminescence relative to Mock); PEG+ sample (WT treated with m-dPEG24-DBCO, not modified), 1000-fold diluted (EPOR): > 1.5 times that of Mock
reporter activity (PathHunter eXpress EpoR-JAK2 Functional Assay, chemiluminescence relative to Mock); PEG- sample, 1000-fold diluted (EPOR): > 1.5 times that of Mock
B14: WT-EPO-PA22 (peptide)
chain: AETGGLYACHMGPMTWVCQPLRGAAPAAPAPAAPAAPAPAAPAAPGGLYACHMGPMTWVCQPLRG
